Data from patent US20030092035A1 (CALIFORNIA INSTITUTE OF TECHNOLOGY, published 2003).
Ends that are not written are not given here.

Assays:
MRGA1-GFP fusion protein = molecular target: T1, MRGA1-GFP fusion protein (mouse, UniProt Q91WW5 1-304); assay: cell-based or functional assay
T1 sequence: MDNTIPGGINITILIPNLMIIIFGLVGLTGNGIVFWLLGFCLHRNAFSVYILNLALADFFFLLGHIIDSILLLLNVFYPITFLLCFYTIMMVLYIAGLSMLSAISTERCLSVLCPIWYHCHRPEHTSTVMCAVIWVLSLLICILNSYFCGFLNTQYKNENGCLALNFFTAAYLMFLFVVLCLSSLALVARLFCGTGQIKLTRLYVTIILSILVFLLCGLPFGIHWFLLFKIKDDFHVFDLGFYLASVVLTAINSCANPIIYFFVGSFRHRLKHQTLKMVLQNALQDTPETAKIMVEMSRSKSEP

[1] = molecular target: T2, MRGA4-GFP fusion protein (mouse) (UniProt Q91WW2); assay: cell-based or functional assay
T2 sequence: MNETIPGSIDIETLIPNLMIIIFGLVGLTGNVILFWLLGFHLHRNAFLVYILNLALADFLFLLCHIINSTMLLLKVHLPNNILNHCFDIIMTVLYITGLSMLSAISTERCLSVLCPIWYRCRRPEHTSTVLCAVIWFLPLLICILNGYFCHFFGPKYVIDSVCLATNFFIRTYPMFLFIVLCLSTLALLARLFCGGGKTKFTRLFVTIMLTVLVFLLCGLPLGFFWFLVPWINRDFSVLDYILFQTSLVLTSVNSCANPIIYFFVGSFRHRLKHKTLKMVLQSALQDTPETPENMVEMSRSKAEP

Molecule: ACTH (peptide)
- EC50, Ca2+ dose-response in HEK-Galpha15 cells (MRGA1-GFP fusion protein): 60 nM
- EC50, Ca2+ dose-response in HEK-Galpha15 cells [1]: 200 nM

Molecule: NPFF (peptide)
- EC50, Ca2+ dose-response in HEK-Galpha15 cells (MRGA1-GFP fusion protein): 200 nM

B1: NPAF (peptide, UniProt O15130 93-110, looked up, species assumed)
Neuropeptide AF: AGEGLNSQFWSLAAPQRF-NH2
modifications: ends and bridges not checked
- EC50, Ca2+ dose-response in HEK-Galpha15 cells [1]: 60 nM

B2: FLRFamide (peptide)
peptide: FLRF-NH2
- EC50, Ca2+ dose-response in HEK-Galpha15 cells (MRGA1-GFP fusion protein): ~20 nM
